Data on six molecules can be found in US20220251148A1.

B1: P2g (SEQ ID NO: 43), modified alpha gliadin 15-mer peptide (peptide)
peptide: KLPYPQGRLPGPQPQ
B2: P3c (SEQ ID NO: 46), modified alpha gliadin 15-mer peptide (peptide)
peptide: PYPHPRLPYTQPQPF
B3: P1f (SEQ ID NO: 37), modified alpha gliadin 15-mer peptide (peptide)
peptide: LQLQPFDQPRLPWPQ
B4: P3d (SEQ ID NO: 47), modified alpha gliadin 15-mer peptide (peptide)
peptide: PYSQPESPYMQPQPF
B5: P1g (SEQ ID NO: 38), modified alpha gliadin 15-mer peptide (peptide)
peptide: LQLQPFWQPKLPGPQ
B6: P3f (SEQ ID NO: 48), modified alpha gliadin 15-mer peptide (peptide)
peptide: PYPHPWLRGPQPQPF

A word on the IC50: it is the concentration that inhibits the measured activity by half.

The target in the test is purified MHC (MHC II molecules purified by affinity chromatography). The experiment in a line: competition with a radiolabelled known MHC binding peptide for purified MHC.
The molecule B1 gave an IC50 of 3.75 µM. B2 yielded an IC50 of 2.99 µM. In the case of B3 it was 5.44 µM. In the case of B4, the 50% inhibitory concentration (IC50) worked out at 1.99 µM. In the case of B5 it was 11.2 µM; in that of B6, 0.879 µM.
